Measurements taken from paper doi:10.1101/859678 (bioRxiv, 2019).

Target: the molecule itself
Experiment: SEC

B1: Arabidopsis thaliana Golgi anti-apoptotic protein 3 (AtGAAP3) (natural protein, UniProt Q9ZQX7-1 1-248, looked up)
chain: MYQWNLPYRKDDVETGVSSRRPLLYPAMHENPELRWGFIRKVYSIIAFQLLATVAVAATVVTVRPIALFFATTGLGLALYIVIIITPLIVLCPLYYYHQKHPVNYLLLGIFTLALAFVVGLTCAFTNGKVILESVILTSVVVLSLTLYTFWAARKGYDFNFLGPFLFGALTVLIFFALIQILFPLGRVSVMIYGCLVSIIFCGYIVYDTDNLIKRHTYDEYIWAAVSLYLDIINLFLYLLTVLRALQR
binding result: binds
